Reference: patent publication US20260151496A1 (FUDAN UNIVERSITY, published 2026)
Read-outs that look alike come from different tables or passages of the source.

Columns and labels:
[1] = molecular target: T1, human HER2 His6 protein, extracellular domain (NCBI NP_004439.2, Met 1-Thr 652), C-terminal polyhistidine tag (human, UniProt P04626 23-652); assay: ELISA, HER2 protein coated at 1 µg/mL, detection with HRP-labelled protein A, OD 450 nm
T1 construct: range 1-652; The stated range includes Met 1; also called HER2-ECD; human HER2-ECD
Method: (§1) HER2 protein was diluted to 1 μg/mL with coating solution, coated onto ELISA plate, 100 μL/well, 4° C., overnight. The excess antigens were washed off. The plate was blocked with 1% BSA at room temperature for 2 hours, then 5-fold gradient diluted monoclonal antibodies were added at 100 μL/well, and the plate was incubated at room temperature for 1 hour; the unbound antibodies were washed off, and suitable concentration of horseradish peroxidase labeled Staphylococcus protein A was added at 100 μL/well, and the plate was incubated at room temperature for 0.5 hours. The unbound secondary antibody was washed off. TMB colorimetric solution was added and reacted for about 15 minutes. 1M HCl at 50 μL/well was added to terminate the colorimetric reaction, then the absorbance was measured at 450 nm and the data was analyzed.

[2] = molecular target: T2, HER2 receptor on the surface of NCI-N87 cells (human, UniProt P04626 23-1255); assay: flow cytometry on NCI-N87 cells, PE-labelled secondary antibody
T2 construct: whole, on cells; also called HER2 on tumor cell surface
Method: (§2) HER2 overexpressing gastric cancer cell line NCI-N87 was used as the target cell. 100 μL of the test antibody diluted in a 10 folds gradient was used as the primary antibody. It was mixed with 1×10⁵ tumor cells suspended in 100 μL RPMI-1640 serum-free medium at final concentrations of 10 μg/mL, 1 μg/mL, and 0.1 μg/mL. The cells were then incubated at 4° C. for 1 hour, washed twice with PBS to remove unbound primary antibodies, and incubated with 200 μL, 2 μg/mL, PE labeled secondary antibodies at 4° C. for 30 minutes. The cells were washed twice with PBS to remove unbound secondary antibodies. Finally, the cells were resuspended in 200 μL PBS and analyzed by flow cytometry to determine the binding affinity of the test antibody to HER2 on the corresponding cell surface.

[3] = molecular target: T1, human HER2 His6 protein, extracellular …; assay: ELISA, HER2 protein coated at 1 µg/mL, detection with HRP-labelled protein A
Method: as §1

[4] = molecular target: T1, human HER2 His6 protein, extracellular …; assay: ForteBio OCTET R2, antibody captured on Protein A sensor, HER2 protein in solution, 25 °C
Method: (§3) […] detection was performed and Protein A sensor was used to solidify the antibody at a curing height of approximately […]. […] Affinity detection: equilibrium for 60 seconds, binding for 180 seconds, dissociation for 180 seconds, detection at 25° C., and kinetic characterization analysis was performed using the ForteBio OCTET R2 system.

[5] = molecular target: T2, HER2 receptor on the surface of NCI-N87 …; assay: flow cytometry on NCI-N87 cells, PE-labelled secondary antibody; remark: listed apart in the source
Method: as §2

[6] = molecular target: T1, human HER2 His6 protein, extracellular …; assay: called SPR, run on ForteBio OCTET R2; antibody captured on Protein A sensor, HER2 protein at 500-31.3 nM as analyte, 25 °C
Method: as §3

EC50 [1] | EC50 [2] | Max MFI [2] | EC50 [3] | koff [4] | kon [4] | EC50 [5] | Kd [6] | Binder
0.125 nM | 1.39 nM | 269000 | 0.01 µg/mL | 0.0118 s⁻¹ | 974000 M⁻¹ s⁻¹ | 0.109 µg/mL | 12.1 nM | HER2 VHH-FC1 fusion protein 1-C09 (Fc fusion, 25; also called 1-C09-FC1; 1-C9-FC1) DVQLVESGGGLVQPGGSLRLSCEASGLTFRRYHFSWYRQPPGKERELVAVISDTGSTTNYTDSVKGRFTISRDLARNTVFLQLNSLKPDDTAVYYCNAKWPIIAADWWGQGTQVTVSSEPKSSDKTHTCPPCPAPEFEGGPSVFLFPPKPKDTLMISRTPEVTCVVVDVSHEDPEVKFNWYVDGVEVHNAKTKPREEQYNSTYRVVSVLTVLHQDWLNGKEYKCKVSNKALPASIEKTISKAKGQPREPQVYTLPPSRDELTKNQVSLTCLVKGFYPSDIAVEWESNGQPENNYKTTPPVLDSDGSFFLYSKLTVDKSRWQQGNVFSCSVMHEALHNHYTQKSLSLSPGK
0.069 nM | 1.86 nM | 245000 | 0.005 µg/mL | 0.0108 s⁻¹ | 1.22e+06 M⁻¹ s⁻¹ | 0.144 µg/mL | 8.9 nM | HER2 VHH-FC1 fusion protein 1-B05 (Fc fusion, 25; also called 1-B05-FC1; chimeric nanobody 1-B05) AVQLVESGGGPGGSLRLSCAASGITFFRHTLGWYRQAPGKQRELVASITGGESTNYADSVKSRFTISRDNAKNMVFLQMNSLKPEDTALYYCNSKWDAAGVEFWGKGTLVTVSSEPKSSDKTHTCPPCPAPEFEGGPSVFLFPPKPKDTLMISRTPEVTCVVVDVSHEDPEVKFNWYVDGVEVHNAKTKPREEQYNSTYRVVSVLTVLHQDWLNGKEYKCKVSNKALPASIEKTISKAKGQPREPQVYTLPPSRDELTKNQVSLTCLVKGFYPSDIAVEWESNGQPENNYKTTPPVLDSDGSFFLYSKLTVDKSRWQQGNVFSCSVMHEALHNHYTQKSLSLSPGK
0.05 nM | 1.67 nM | 234000 | 0.004 µg/mL | 0.0108 s⁻¹ | 466000 M⁻¹ s⁻¹ | 0.13 µg/mL | 23.2 nM | HER2 VHH-FC1 fusion protein 2-F03 (Fc fusion, 25; also called 2-F03-FC1; chimeric nanobody 2-F03) EVQLVESGGGLVQPGGSLRLSCAASGLTFRRYHMSWYRQAPGKERELVAVISDTGTTNYAESVKGRFTISRDNSRSTVFLQLNSLKPDDTAVYYCNGRWPAVAADWWGQGTQVTVSSEPKSSDKTHTCPPCPAPEFEGGPSVFLFPPKPKDTLMISRTPEVTCVVVDVSHEDPEVKFNWYVDGVEVHNAKTKPREEQYNSTYRVVSVLTVLHQDWLNGKEYKCKVSNKALPASIEKTISKAKGQPREPQVYTLPPSRDELTKNQVSLTCLVKGFYPSDIAVEWESNGQPENNYKTTPPVLDSDGSFFLYSKLTVDKSRWQQGNVFSCSVMHEALHNHYTQKSLSLSPGK
0.07 nM | 1.68 nM | 241000 | 0.005 µg/mL | 0.00251 s⁻¹ | 338000 M⁻¹ s⁻¹ | 0.131 µg/mL | 7.42 nM | HER2 VHH-FC1 fusion protein 2-C07 (Fc fusion, 25; also called 2-C07-FC1; chimeric nanobody 2-C07) AVQLVESGGGLVQPGGSLRLSCAASGLTFMRYDINWYRQAPGKERELVAALDSSSGRTNYADFTEGRFTISRNNAKNSAYLQMNNLKPEDTASYYCNAQWKRIGADYWGQGTQVTVFSEPKSSDKTHTCPPCPAPEFEGGPSVFLFPPKPKDTLMISRTPEVTCVVVDVSHEDPEVKFNWYVDGVEVHNAKTKPREEQYNSTYRVVSVLTVLHQDWLNGKEYKCKVSNKALPASIEKTISKAKGQPREPQVYTLPPSRDELTKNQVSLTCLVKGFYPSDIAVEWESNGQPENNYKTTPPVLDSDGSFFLYSKLTVDKSRWQQGNVFSCSVMHEALHNHYTQKSLSLSPGK
0.128 nM | 2.48 nM | 250000 | 0.01 µg/mL | – | – | 0.199 µg/mL | – | HER2 VHH-FC1 fusion protein 1-G07 (Fc fusion, 25; also called 1-G07-FC1; chimeric nanobody 1-G07) QVQLVESGGGKAQPGGSLRLSCVASRITFRHYDLSWYRQAPGQERELVATVTNGGVITYADSVKGRFTISRDNAKNTVQLQMNNLKPEDTAVYYCNAVWVYLQRLTQNKKENDYWGPGTQVTVSSEPKSSDKTHTCPPCPAPEFEGGPSVFLFPPKPKDTLMISRTPEVTCVVVDVSHEDPEVKFNWYVDGVEVHNAKTKPREEQYNSTYRVVSVLTVLHQDWLNGKEYKCKVSNKALPASIEKTISKAKGQPREPQVYTLPPSRDELTKNQVSLTCLVKGFYPSDIAVEWESNGQPENNYKTTPPVLDSDGSFFLYSKLTVDKSRWQQGNVFSCSVMHEALHNHYTQKSLSLSPGK
0.22 nM | 2.64 nM | 240000 | 0.017 µg/mL | 0.001 s⁻¹ | 217000 M⁻¹ s⁻¹ | 0.209 µg/mL | 4.61 nM | HER2 VHH-FC1 fusion protein 1-C10 (Fc fusion, 25; also called 1-C10-FC1; chimeric nanobody 1-C10) QVQLVESGGDLVQPGGSLRLSCATSGLTFRRYELKWYRQAPGKERELVAGITPASGSRNYADSVKGRFTISRDDAKMTVYLQMNSLEPEDTAVYYCNAYWMIPQHIENNYWGKGTLVTVSSEPKSSDKTHTCPPCPAPEFEGGPSVFLFPPKPKDTLMISRTPEVTCVVVDVSHEDPEVKFNWYVDGVEVHNAKTKPREEQYNSTYRVVSVLTVLHQDWLNGKEYKCKVSNKALPASIEKTISKAKGQPREPQVYTLPPSRDELTKNQVSLTCLVKGFYPSDIAVEWESNGQPENNYKTTPPVLDSDGSFFLYSKLTVDKSRWQQGNVFSCSVMHEALHNHYTQKSLSLSPGK
